In PMC5035961:

Experiments:
[1] = target: Influenza A nucleoprotein (strain A/WSN/1933, H1N1) (influenza A virus, H1N1 strain A/WSN/1933) (UniProt P15682); assay: SEC-MALLS
[2] = target: Influenza A nucleoprotein (strain A/WSN/1933, H1N1) (influenza A virus, H1N1 strain A/WSN/1933) (UniProt P15682); assay: negative stain electron microscopy

Substance: Influenza A nucleoprotein (strain A/WSN/1933, H1N1) (from UniProt P15682 1-498) (natural protein)
- stoichiometry N [1]: 3
- stoichiometry N [2]: 3
